Tests used:
[1] = Dosing regimen model: required bioavailability for ingestible device (Tables 16, 17); details: for Eff Dose: approved dose x bioavailability of the approved route (Table 16)
[2] = in vivo, sc; cited from earlier work

Row | Molecule | Eff Dose [1] | Bio Avail (Approved Dosing Info) [2] | Eff. Dose ([1]; baseline dose x bioavailability, SC (Table 17), assumed weight 70 kg) | Bioavail. (Baseline dose) [2]
1 | emicizumab (antibody, chains of the INN, looked up, V domains shown) VH: QVQLVQSGSELKKPGASVKVSCKASGYTFTDNNMDWVRQAPGQGLEWMGDINTRSGGSIYNEEFQDRVIMTVDKSTDTAYMELSSLRSEDTATYHCARRKSYGYYLDEWGEGTLVTVSS VL: DIQMTQSPSSLSASVGDRVTITCKASRNIERQLAWYQQKPGQAPELLIYQASRKESGVPDRFSGSRYGTDFTLTISSLQPEDIATYYCQQYSDPPLTFGGGTKVEIK VH2: QVQLVESGGGLVQPGGSLRLSCAASGFTFSYYDIQWVRQAPGKGLEWVSSISPSGQSTYYRREVKGRFTISRDNSKNTLYLQMNSLRAEDTAVYYCARRTGREYGGGWYFDYWGQGTLVTVSS VL2: DIQMTQSPSSLSASVGDRVTITCKASRNIERQLAWYQQKPGQAPELLIYQASRKESGVPDRFSGSRYGTDFTLTISSLQPEDIATYYCQQYSDPPLTFGGGTKVEIK | 89.3 mg | 85% |  | 
2 | pegfilgrastim (protein, UniProt P09919 31-207, looked up, N-terminal Met; PEG) Granulocyte …: TPLGPASSLPQSFLLKCLEQVRKIQGDGAALQEKLVSECATYKLCHPEELVLLGHSLGIPWAPLSSCPSQALQLAGCLSQLHSGLFLYQGLLQALEGISPELGPTLDTLQLDVADFATTIWQQMEELGMAPALQPTQGAMPAFASAFQRRAGGVLVASHLQSFLEVSYRVLRHLAQP | 4.2 mg | 70% |  | 
3 | evolocumab (antibody, chains of the INN, looked up, V domains shown) VH: EVQLVQSGAEVKKPGASVKVSCKASGYTLTSYGISWVRQAPGQGLEWMGWVSFYNGNTNYAQKLQGRGTMTTDPSTSTAYMELRSLRSDDTAVYYCARGYGMDVWGQGTTVTVSS VL: ESALTQPASVSGSPGQSITISCTGTSSDVGGYNSVSWYQQHPGKAPKLMIYEVSNRPSGVSNRFSGSKSGNTASLTISGLQAEDEADYYCNSYTSTSMVFGGGTKLTVL | 114.8 mg | 82% |  | 
4 | concizumab (antibody, chains of the INN, looked up, V domains shown) VH: EVQLVESGGGLVKPGGSLRLSCAASGFTFSNYAMSWVRQTPEKRLEWVATISRSGSYSYFPDSVQGRFTISRDNAKNSLYLQMNSLRAEDTAVYYCARLGGYDEGDAMDSWGQGTTVTVSS VL: DIVMTQTPLSLSVTPGQPASISCKSSQSLLESDGKTYLNWYLQKPGQSPQLLIYLVSILDSGVPDRFSGSGSGTDFTLKISRVEAEDVGVYYCLQATHFPQTFGGGTKVEIK |  |  | 16.3 mg | 93.0%

Source: US11007356B2, “Ingestible device for delivery of therapeutic agent to the gastrointestinal tract” (Progenity, Inc., priority 2018, dated 2021)
